Patent publication US20040053368A1 (published 2004)

Biological target: T1, bovine serum albumin (BSA, Sigma) (bovine, UniProt P02769 25-607)
T1 construct: Control protein coated on the ELISA plate
Experiment: ELISA, serum albumin coated at 1 mg/ml, detected with anti-human FNCBD monoclonal antibody
Procedure: By the enzyme-linked immunosorbent assay (ELISA), binding ability of the FNCBD-bFGF and the FNCBD-EGF to bovine native collagen (I-AC, Koken), bovine atelocollagen (I-PC, Koken), and bovine serum albumin (BSA, Sigma) was evaluated.
First, 1 mg/ml solutions of native collagen, atelocollagen, and serum albumin were respectively dispensed in the wells of a flat-bottom 96-well ELISA plate at 200 μl/well, and the plate was allowed to stand overnight at 4° C.
The wells were washed three times with PBS containing 0.05% Tween 20, and 100 μl of anti-human FNCBD monoclonal antibody (Takara Shuzo) diluted 1:1000 was dispensed in the wells and allowed to stand at room temperature for 1 hour. The wells were washed three times with 0.05% Tween 20/PBS, and 100 μl of peroxidase-labelled anti-mouse immunoglobulin polyclonal antibody (Dako Japan) diluted 1:1000 was dispensed in the wells and allowed to stand at room temperature for 1 hour. After washing the wells 6 times with 0.05% Tween 20/PBS, 0.1M citrate buffer, pH 4.7 containing 1 mg/ml o-phenylenediamine and 0.03% hydrogen peroxide was dispensed in the wells and allowed to stand for 10 minutes. The reaction was then terminated by addition of 50 μl of 4N sulfuric acid and absorption at 492-690 nm was measured.

T1 sequence (P02769 25-607 limits assumed): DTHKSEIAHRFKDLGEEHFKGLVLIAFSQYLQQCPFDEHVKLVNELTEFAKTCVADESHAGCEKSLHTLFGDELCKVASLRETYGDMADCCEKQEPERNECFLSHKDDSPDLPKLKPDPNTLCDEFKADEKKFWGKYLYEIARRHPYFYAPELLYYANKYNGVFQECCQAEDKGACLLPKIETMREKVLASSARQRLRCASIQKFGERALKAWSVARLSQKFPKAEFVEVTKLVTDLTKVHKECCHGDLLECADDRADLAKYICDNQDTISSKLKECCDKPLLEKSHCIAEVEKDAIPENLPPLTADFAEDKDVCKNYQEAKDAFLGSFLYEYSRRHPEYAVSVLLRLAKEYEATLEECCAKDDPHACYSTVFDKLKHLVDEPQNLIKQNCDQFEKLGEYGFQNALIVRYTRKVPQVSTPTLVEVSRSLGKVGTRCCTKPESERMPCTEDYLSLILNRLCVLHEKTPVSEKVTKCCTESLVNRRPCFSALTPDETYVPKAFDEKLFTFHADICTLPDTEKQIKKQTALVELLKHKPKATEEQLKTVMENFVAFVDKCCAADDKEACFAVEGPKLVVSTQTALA

B1: human FNCBD/human EGF hybrid polypeptide (FNCBD-EGF) (other)
chain: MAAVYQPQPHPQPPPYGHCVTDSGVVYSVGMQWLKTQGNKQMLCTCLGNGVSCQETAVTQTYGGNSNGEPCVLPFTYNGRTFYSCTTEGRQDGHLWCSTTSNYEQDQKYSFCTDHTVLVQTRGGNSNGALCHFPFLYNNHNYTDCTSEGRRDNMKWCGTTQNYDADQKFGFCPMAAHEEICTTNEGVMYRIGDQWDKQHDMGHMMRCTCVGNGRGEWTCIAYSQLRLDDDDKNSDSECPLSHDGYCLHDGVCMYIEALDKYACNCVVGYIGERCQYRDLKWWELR
notes: also called FN484-EGF; FNCBD/EGF hybrid polypeptide
B1: no binding.
